Assay results as given in paper PMC11466968.

How the values were obtained:
BAG3 = BAG3 (UniProt O95817); assay: co-immunoprecipitation; details: sites T287
HRI = HRI (UniProt Q9BQI3); assay: co-immunoprecipitation with anti-FLAG antibody; details: reference: wild type BAG3-FLAG; sites S173,S377,S386

CaMKIIβ (from UniProt Q13554) CaMKIIβ T287A
binding against the reference (BAG3; reference: wild type CaMKIIβ): weaker

CaMKIIδ (from UniProt Q13557) CaMKIIδ T287A
binding against the reference (BAG3; reference: wild type CaMKIIδ): weaker

BAG3 (from UniProt O95817) BAG3 3A (S173A/S377A/S386A)
binding against the reference (HRI): weaker
